T1: human TREM2 (human) (UniProt Q9NZC2)
T1 sequence (looked up): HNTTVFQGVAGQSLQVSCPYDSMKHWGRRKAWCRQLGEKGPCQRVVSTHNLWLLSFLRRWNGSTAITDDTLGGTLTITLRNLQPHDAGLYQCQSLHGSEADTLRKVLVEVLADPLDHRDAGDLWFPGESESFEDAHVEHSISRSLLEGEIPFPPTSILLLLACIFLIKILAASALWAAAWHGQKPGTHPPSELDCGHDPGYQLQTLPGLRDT


Tests used:
human TREM2 (human) [1] = target: T1, human TREM2 (human); assay: 1st screen, 110 nM Ab
human TREM2 (human) [2] = target: T1, human TREM2 (human); assay: 2nd screen, 100 nM Ab

| Binder | Binding Signal (fold over 6E7 parental antibody) (human TREM2 (human) [1]) [fold] | Binding Signal (fold over 6E7 parental antibody) (human TREM2 (human) [2]) [fold] |
| --- | --- | --- |
| 6E7 variant V34 (antibody, V domains shown) VH: EVQLVQSGAEVKKPGESLKISCKGSGYSFTSYWIAWVRQMPGKGLEWMGIIYPGDSDTRYSPSFQGQVTISADKSISTAYLQWSSLKASDTAMYFCARQRTFYYDSSDYFDYWGQGTLVTVSS VL: DIQMTQSPSSVSASVGDRVTITCRASQGISSWLAWYQQKPGKAPKLLIYAASSLQDGVPSRFSGSGSGTDFTLTISSLQPEDFATYFCQQADSFPRTFGQGTKLEIK | 0.34 | 1.02 |
| 6E7 variant V35 (antibody, V domains shown) VH: EVQLVQSGAEVKKPGESLKISCKGSGYSFTSYWIAWVRQMPGKGLEWMGIIYPGDSDTRYSPSFQGQVTISADKSISTAYLQWSSLKASDTAMYFCARQRTFYYDSSDYFDYWGQGTLVTVSS VL: DIQMTQSPSSVSASVGDRVTITCRASQGISSWLAWYQQKPGKAPKLLIYAASSLQNGVPSRFSGSGSGTDFTLTISSLQPEDFATYFCQQAYSFPRTFGQGTKLEIK | 0.21 | 0.29 |
| 6E7 variant V42 (antibody, V domains shown) VH: EVQLVQSGAEVKKPGESLKISCKGSGYSFTSAWIAWVRQMPGKGLEWMGIIYPGDSDTRYSPSFQGQVTISADKSISTAYLQWSSLKASDTAMYFCARQRTFYYDSSDYFDYWGQGTLVTVSS VL: DIQMTQSPSSVSASVGDRVTITCRASQGISSWLAWYQQKPGKAPKLLIYAASSLQNGVPSRFSGSGSGTDFTLTISSLQPEDFATYFCQQADSFPRTFGQGTKLEIK | 0.45 | 0.41 |
| 6E7 variant V43 (antibody, V domains shown) VH: EVQLVQSGAEVKKPGESLKISCKGSGYSFTSYWIAWVRQMPGKGLEWMGIIYPGDSGTRYSPSFQGQVTISADKSISTAYLQWSSLKASDTAMYFCARQRTFYYDSSDYFDYWGQGTLVTVSS VL: DIQMTQSPSSVSASVGDRVTITCRASQGISSWLAWYQQKPGKAPKLLIYAASSLQNGVPSRFSGSGSGTDFTLTISSLQPEDFATYFCQQADSFPRTFGQGTKLEIK | 0.2 | 0.33 |
| 6E7 variant V44 (antibody, V domains shown) VH: EVQLVQSGAEVKKPGESLKISCKGSGYSFTSYWIAWVRQMPGKGLEWMGIIYPSDSDTRYSPSFQGQVTISADKSISTAYLQWSSLKASDTAMYFCARQRTFYYDSSDYFDYWGQGTLVTVSS VL: DIQMTQSPSSVSASVGDRVTITCRASQGISSWLAWYQQKPGKAPKLLIYAASSLQNGVPSRFSGSGSGTDFTLTISSLQPEDFATYFCQQADSFPRTFGQGTKLEIK | 0.65 | 0.52 |
| 6E7 variant V45 (antibody, V domains shown) VH: EVQLVQSGAEVKKPGESLKISCKGSGYSFTSYWIAWVRQMPGKGLEWMGIIYPGDSDTRYSPSFQGQVTISADKSISTAYLQWSSLKASDTAMYFCARQRTFYYDSSDYFDYWGQGTLVTVSS VL: DIQMTQSPSSVSASVGDRVTITCRASQGISSFLAWYQQKPGKAPKLLIYAASSLQNGVPSRFSGSGSGTDFTLTISSLQPEDFATYFCQQADSFPRTFGQGTKLEIK | 0.43 | 0.53 |
| 6E7 variant V46 (antibody, V domains shown) VH: EVQLVQSGAEVKKPGESLKISCKGSGYSFTSYWIAWVRQMPGKGLEWMGIIYPGDSDTRYSPSFQGQVTISADKSISTAYLQWSSLKASDTAMYFCARQRTFYYDSSDYFDYWGQGTLVTVSS VL: DIQMTQSPSSVSASVGDRVTITCRASQGISSWLAWYQQKPGKAPKLLIYAASTLQNGVPSRFSGSGSGTDFTLTISSLQPEDFATYFCQQADSFPRTFGQGTKLEIK | 0.83 | 0.96 |
| 6E7 variant V47 (antibody, V domains shown) VH: EVQLVQSGAEVKKPGESLKISCKGSGYSFTSYWIAWVRQMPGKGLEWMGIIYPGDSDTRYSPSFQGQVTISADKSISTAYLQWSSLKASDTAMYFCARQRTFYYDSSDYFDYWGQGTLVTVSS VL: DIQMTQSPSSVSASVGDRVTITCRASQGISSWLAWYQQKPGKAPKLLIYAASSLQNGVPSRFSGSGSGTDFTLTISSLQPEDFATYFCQQADSFPMTFGQGTKLEIK | 0.42 | 0.47 |
| 6E7 variant V54 (antibody, V domains shown) VH: EVQLVQSGAEVKKPGESLKISCKGSGYSFTSQWIAWVRQMPGKGLEWMGIIYPGDSDTRYSPSFQGQVTISADKSISTAYLQWSSLKASDTAMYFCARQRTFYYDSSDYFDYWGQGTLVTVSS VL: DIQMTQSPSSVSASVGDRVTITCRASQGISSWLAWYQQKPGKAPKLLIYAASSLQNGVPSRFSGSGSGTDFTLTISSLQPEDFATYFCQQADSFPRTFGQGTKLEIK | 0.55 | 0.54 |
| 6E7 variant V55 (antibody, V domains shown) VH: EVQLVQSGAEVKKPGESLKISCKGSGYSFTSYWIAWVRQMPGKGLEWMGIIYPGDSDTIYSPSHQGQVTISADKSISTAYLQWSSLKASDTAMYFCARQRTFYYDSSDYFDYWGQGTLVTVSS VL: DIQMTQSPSSVSASVGDRVTITCRASQGISSWLAWYQQKPGKAPKLLIYAASSLQNGVPSRFSGSGSGTDFTLTISSLQPEDFATYFCQQADSFPRTFGQGTKLEIK | 0.24 | 0.66 |
| 6E7 variant V56 (antibody, V domains shown) VH: EVQLVQSGAEVKKPGESLKISCKGSGYSFTSYWIAWVRQMPGKGLEWMGIIYPGDSDTRYQPSFQGQVTISADKSISTAYLQWSSLKASDTAMYFCARQRTFYYDSSDYFDYWGQGTLVTVSS VL: DIQMTQSPSSVSASVGDRVTITCRASQGISSWLAWYQQKPGKAPKLLIYAASSLQNGVPSRFSGSGSGTDFTLTISSLQPEDFATYFCQQADSFPRTFGQGTKLEIK | 0.23 | 0.59 |
| 6E7 variant V57 (antibody, V domains shown) VH: EVQLVQSGAEVKKPGESLKISCKGSGYSFTSYWIAWVRQMPGKGLEWMGIIYPGDSDTRYSPSFQGQVTISADKSISTAYLQWSSLKASDTAMYFCARQRTFYYDSSDYFDYWGQGTLVTVSS VL: DIQMTQSPSSVSASVGDRVTITCAASQGISSWLAWYQQKPGKAPKLLIYAASSLQNGVPSRFSGSGSGTDFTLTISSLQPEDFATYFCQQADSFPRTFGQGTKLEIK | 0.84 | 0.85 |
| 6E7 variant V58 (antibody, V domains shown) VH: EVQLVQSGAEVKKPGESLKISCKGSGYSFTSYWIAWVRQMPGKGLEWMGIIYPGDSDTRYSPSFQGQVTISADKSISTAYLQWSSLKASDTAMYFCARQRTFYYDSSDYFDYWGQGTLVTVSS VL: DIQMTQSPSSVSASVGDRVTITCRASQGISSWLAWYQQKPGKAPKLLIYKASSLQNGVPSRFSGSGSGTDFTLTISSLQPEDFATYFCQQADSFPRTFGQGTKLEIK | 0.28 | 0.68 |
| 6E7 variant V59 (antibody, V domains shown) VH: EVQLVQSGAEVKKPGESLKISCKGSGYSFTSYWIAWVRQMPGKGLEWMGIIYPGDSDTRYSPSFQGQVTISADKSISTAYLQWSSLKASDTAMYFCARQRTFYYDSSDYFDYWGQGTLVTVSS VL: DIQMTQSPSSVSASVGDRVTITCRASQGISSWLAWYQQKPGKAPKLLIYAASSLQNGVPSRFSGSGSGTDFTLTISSLQPEDFATYFCMQADSFPRTFGQGTKLEIK | 0.19 | 0.6 |
